The target of assay [1] is T1, human ASGR1 (asialoglycoprotein receptor 1) on cells (human, UniProt P07306 1-291).
T1 construct: whole, on cells; also called HepG2 cells; CHO-S cells transfected with human ASGR1 full length DNA
T1 sequence (looked up): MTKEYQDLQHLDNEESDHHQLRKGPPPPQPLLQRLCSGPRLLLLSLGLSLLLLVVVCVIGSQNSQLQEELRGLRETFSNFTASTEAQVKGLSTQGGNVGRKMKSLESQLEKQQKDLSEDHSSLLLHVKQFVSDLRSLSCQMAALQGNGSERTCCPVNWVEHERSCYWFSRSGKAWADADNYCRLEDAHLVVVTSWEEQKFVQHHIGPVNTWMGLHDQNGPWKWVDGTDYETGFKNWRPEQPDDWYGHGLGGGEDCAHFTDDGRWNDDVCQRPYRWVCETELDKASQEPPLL
Description: Guava flow cytometry screen on HepG2 cells. For orientation: Flow cytometry measures light scatter and fluorescence of single cells or particles in a stream.

Assay [2] deals with T2, rat ASGR1 on CHO-S cells (rat, UniProt P02706 1-284).
T2 construct: whole, on cells
T2 sequence (looked up): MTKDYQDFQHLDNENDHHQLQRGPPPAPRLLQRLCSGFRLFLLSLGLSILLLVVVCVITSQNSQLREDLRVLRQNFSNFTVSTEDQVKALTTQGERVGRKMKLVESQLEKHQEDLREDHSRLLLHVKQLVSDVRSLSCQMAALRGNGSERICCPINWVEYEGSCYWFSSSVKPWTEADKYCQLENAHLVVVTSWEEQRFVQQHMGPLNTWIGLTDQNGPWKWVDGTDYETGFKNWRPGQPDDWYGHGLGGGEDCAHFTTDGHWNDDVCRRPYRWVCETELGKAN
Description: Guava flow cytometry on CHO-S cells expressing rat ASGR1.

Assay [3] addresses T3, Cynomolgus macaque ASGR1 on CHO-S cells (Cynomolgus macaque).
T3 construct: whole, on cells; also called Cynomologous ASGR1
Description: Guava flow cytometry on CHO-S cells expressing cynomolgus ASGR1. On the procedure:
(§1) Anti-human ASGR1 antibodies of this disclosure were examined for cross-reactivity with Cynomolgus macaque and rat ASGR1. Briefly, sequence encoding Cynomolgus macaque or rat ASGR1 was transiently transfected into CHO-S cells. Transfected cells were before performing cell binding assay. A total of about 1.5×10⁴ transfected cells/well were added to 96-well V-bottom assay plate, incubated at 37° C., 5% CO2 for 48-72 hours, and then washed with culture medium before adding 100 μl of each ASGR1 antibody at different concentrations starting from 100 nM and 3-fold dilutions to a total of eight wells. The cells with antibody were incubated for 40 minutes at 4° C., then washed three times with 200 μl of fresh culture medium. To each well was added 50 μl PE conjugated goat anti-human Fc (SouthemBiotech) at 1:200 dilution in culture medium and then incubated at 4° C. for 20 minutes. After washing the plate once, the treated cells were resuspended in 200 μl culture medium and then the stained cells were analyzed on GUAVA® using Incyte software.

For assay [4], the target named is T4, His-tagged human ASGR1 extracellular domain (human, UniProt P07306 62-291).
T4 construct: extracellular domain; also called His-tagged human ASGR1 ECD; human ASGR1 ECD; not shown: His tag
T4 sequence (looked up): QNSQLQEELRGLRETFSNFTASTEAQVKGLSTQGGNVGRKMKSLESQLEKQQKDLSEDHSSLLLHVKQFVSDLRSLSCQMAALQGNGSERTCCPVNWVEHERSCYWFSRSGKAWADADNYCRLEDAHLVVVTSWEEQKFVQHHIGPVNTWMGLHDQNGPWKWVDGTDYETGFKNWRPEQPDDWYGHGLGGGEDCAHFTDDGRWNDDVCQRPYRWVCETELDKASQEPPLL
Description: Octet, His-tagged ASGR1 ECD on Penta-His sensors; N = association not sensitive to Ca2+ (binds also without calcium). On the procedure:
Analysis of ASGR1 antibody binding to human ASGR1 ECD was performed using the OCTET® Red 96 instrument and analyzed using the OCTET®Data Analysis Software 9.0 (ForteBio). His-tagged human ASGR1 ECD was immobilized to OCTET® Penta-His biosensors and ASGR1 antibodies were subjected to avidity binding under the conditions described above. Association with the ASGR1 ECD was measured by the rate of and increase in magnitude of signal response at a given antibody concentration. Dissociation from the ASGR1 ECD was measured the rate of loss in signal upon removal of the antibody and further incubation with or without Ca²⁺.

Assay [5] deals with T3, Cynomolgus macaque ASGR1 on CHO-S cells. Description: Guava flow cytometry on CHO-S cells expressing cynomolgus ASGR1 (repeat of Table 15). On the procedure: as §1
Assay [6] concerns the target T5, human Fc-fused human ASGR1 extracellular domain (human, UniProt P07306 62-291).
T5 construct: extracellular domain; also called human Fc-fused ASGR1 ECD; not shown: human Fc
T5 sequence (looked up): T4 sequence (looked up)
Description: Octet binning, hFc-ASGR1 ECD on AHC sensors; competitor: ASGR1 mAb-A. On the procedure: The interactions of the anti-ASGR1 antibodies of this disclosure and control mAbs with human ASGR1 ECD were analyzed using the OCTET® Data Analysis Software 9.0 (ForteBio).

Assay [7] deals with T1, human ASGR1 (asialoglycoprotein …). Description: flow cytometry on HepG2 cells, anti-human IgG PE secondary, MFI (Geo Mean). On the procedure:
Briefly, 5×10⁴ HepG2 cells/well were contacted with titrating concentrations of anti-ASGR1 antibodies in FACS Buffer (FB: PBS+2% FBS+1 mM CaCl₂)) for 30 minutes at 4° C. Cells were washed twice in FB, then incubated in anti-human IgG PE secondary for 30 minutes at 4° C. Cells were washed twice in FB, then analyzed by flow cytometry.

The target of assay [8] is T2, rat ASGR1 on CHO-S cells. Description: Guava flow cytometry on CHO-S cells expressing rat ASGR1. On the procedure: as §1
The source holds these as a separate data set.

The target in assay [9] is T2, rat ASGR1 on CHO-S cells. Description: Guava flow cytometry on CHO-S cells expressing rat ASGR1 (repeat of Table 16). On the procedure:
as §1, with “Briefly,” for “Anti-human ASGR1 antibodies of this disclosure were examined for cross-reactivity with Cynomolgus macaque and rat ASGR1. Briefly,”, “(SouthernBiotech)” for “(SouthemBiotech)”
as §1

In assay [10] the target is T1, human ASGR1 (asialoglycoprotein …). Description: Guava flow cytometry screen on HepG2 cells. The source holds these as a separate data set.

Substitutions are numbered along the chain they refer to. Names may count otherwise.

As a reminder, the EC50 is the midpoint of the concentration-response curve. Broadly, the EC50 (read off the curve) is the concentration giving half of the maximal effect. Low values mean a more potent agent, high ones a less potent agent.

B1: hzL4L-6 (antibody, IgG1, V domains shown)
VH: QVQLQESGPGLVKPSQTLSLTCTVSGYSITSDYAWNWIRQHPGKGLEWIGYISYSGSTRYNPSLKSRVTITRDTSKNQFSLKLSSVTAADTAVYYCARRYRYDEGYGMDYWGQGTTVTVSS
VL: DIQMTQSPSSLSASVGDRVTITCRASENIYSNLAWYQQKPGKAPKLLIYAATNLADGVPSRFSGSGSGTDFTLTISSLQPEDFATYYCQHFWGTPPWTFGGGTKVEIK
notes: IgG1, kappa
As to B1, the binding result in [1] is on record as “binds”.

B2: hzL4L-10 (antibody, IgG1, V domains shown)
VH: B1 VH with V68I, T69S
VL: B1 VL with D56S
notes: IgG1, kappa
On to B2, for which the binding result in [1] is “binds”.

B3: hzL4L-7 (antibody, IgG1, V domains shown)
VH: B1 VH with T30S
VL: B1 VL
notes: IgG1, kappa
For B3, the binding result with rat ASGR1 on CHO-S cells [2] was “no binding (tested: 100 nM highest concentration)”; in [4] it was “binds”. Also, the EC50 in assay [3] and in assay [5] was 0.39 nM each time.

B4: L4L (antibody, V domains shown)
VH: DVQLQESGPGLVKPSQSLSLTCTVTGYSITSDYAWNWIRQFPGNKLEWMGYISYSGSTRYNPSLKSRISITRDTSKNQFFLQLNSVTTEDTATYYCARRYRYDEGYGMDYWGQGTSVTVSS
VL: DIQMTQSPASLSVFVGEIVTITCRASENIYSNLAWYQQKQGKSPQLLVYAATNLADGVPSRFTGSGSGTQFSLKINSLQSEDFGNYYCQHFWGTPPWTFGGGTKLEIK
notes: parental mouse hybridoma antibody; also called mAb L4L
As for B4, the binding result in assay [6] and in assay [7] was “binds” in each case.

B5: K2E (antibody, V domains shown)
VH: QVQLQQSAAELARPGASVKMSCKASGYTFTSYTMHWVKQRPGQGLEWIGYISPSSGYTEYNQKFKDKTTLTADKSSSTAYMQLSSLTSEDSAVYYCARKFDYWGQGTTLTVSS
VL: DIKMTQSPSSMYASLGERVTITCKASQDINSYLSWFQQKPGKSPKTLIYRANRLVDGVPSRFSGSGSGQDFSLTISSLEYEDMGIYYCLQYDEFPFTFGSGTKLEIK
notes: parental mouse hybridoma antibody; also called mAb K2E
Take B5: the EC50 with rat ASGR1 on CHO-S cells [8] is 0.52 nM; in the assay with rat ASGR1 on CHO-S cells [9], 0.52 nM; in assay [3], 0.68 nM; in [5] it was 0.68 nM. In addition, the “EC50 (read off the curve)” value in [7] was around 0.3 µg/mL.

B6: hzH8K-1 (antibody, IgG1, V domains shown)
VH: QVQLQESGPGLVKPSQTLSLTCTVSGGSISSDYAWNWIRQHPGKGLEWIGYRSYRGSTSYNPSLKSRVTISVDTSKNQFSLKLSSVTAADTAVYYCARRGYYGSSSHWYFDVWGQGTTVTVSS
VL: DIQMTQSPSSLSASVGDRVTITCRASENIYSYLAWYQQKPGKAPKLLIYNAKTLAEGVPSRFSGSGSGTDFTLTISSLQPEDFATYYCQHHYGTPLTFGGGTKVEIK
notes: IgG1, kappa
Take B6: the binding result with rat ASGR1 on CHO-S cells [2] is on record as “no binding (tested: 100 nM highest concentration)”. The half-maximal effective concentration (EC50) in [3] and in assay [5] was 0.66 nM in each case.

B7: hzG2D-11 (antibody, human IgG1, kappa)
heavy: not shown
light: DIQMTQSPSSLSASVGDRVTITCKASQVINSYLSWFQQKPGKAPKSLIYRANTLVDGVPSRFSGSGSGTDFTLTISSLQPEDFATYYCLQYAEFPYTFGGGTKVEIKRTVAAPSVFIFPPSDEQLKSGTASVVCLLNNFYPREAKVQWKVDNALQSGNSQESVTEQDSKDSTYSLSSTLTLSKADYEKHKVYACEVTHQGLSSPVTKSFNRGEC
Regarding B7, the binding result in assay [10] is on record as “binds”.

B8: hzG2D-20 (antibody, human IgG1, kappa)
heavy: not shown
light: B7 light
Take B8: in assay [10], the binding result is “binds”.

B9: hzG2D-17 (antibody, human IgG1, kappa, V domains shown)
VH: QVQLVQSGAEVKKPGASVKVSCKASGYTFTGYYMHWVRQAPGQRLEWMGRINPNNGATNYNQNFKDKASLTVDTSASTAYMELSSLRSEDTAVYYCARVNFYYWGQGTTLTVSS
VL: DIKMTQSPSSMYASLGERVTITCKASQVINSYLSWFQQKPGKSPETLIYRANTLVDGVPSRFSGSGSGQDYSLTISSLEYEDLGIYYCLQYAEFPYTFGGGTKLEIKR
notes: humanized VH with the mouse G2D VL
For B9, the binding result in [10] is given as “binds”.

B10: H8K (antibody, V domains shown)
VH: DVQLQESGPGLVKPSQSLSLTCTVTGFSITSDYAWNWIRQFPGNQLEWMGYRSYRGSTSYNPSLKSRISITRDTSKNQFFLQLNSVTTEDTATYYCARRGYYGSSSHWYFDVWGAGTTVTVSS
VL: DIQMTQSPASLSASVGETVTITCRASENIYSYLAWYQQKQGKSPQLLVYNAKTLAEGVPSRFSGSGSGTQFSLKINSLQPEDFGSYYCQHHYGTPLTFGSGTKLELK
notes: parental mouse hybridoma antibody; also called mAb H8K
B10: the binding result in assay [6] and in assay [7] was “binds” each time.

B11: J4F (antibody, V domains shown)
VH: QVQLQQSGDDLVKPGASVKLSCKASGYTFTSYWINWIKQRPGQGLEWIGRIVPGSGSTYYNEMFKDKATLTVDTSSSTAYIQLSSLSSEDSAVYFCARKPNFDVWGAGTTVTVSS
VL: DIVMTQSQKFMSTSVGDRVSVTCKASQNVGTNVAWYQQKPGQSPKAVIYSASYRFSGVPDRLTGSGSGTDFTLTITNVQSEDLAEYFCQQYNSYPLTFGAGTKLELK
notes: parental mouse hybridoma antibody; also called mAb J4F
As to B11, the EC50 with rat ASGR1 on CHO-S cells [8] came to 0.62 nM; with rat ASGR1 on CHO-S cells [9], 0.62 nM; in [3], 0.67 nM; in assay [5], 0.67 nM. Besides, the “EC50 (read off the curve)” value in [7] is around 0.3 µg/mL.

The record behind these values is US20210130473A1 (SILVERBACK THERAPEUTICS, published 2021).
